Test results published in paper doi:10.1101/2021.03.03.433707 (bioRxiv, 2021).
Changes are numbered by the printed parent chain.

T1: MukB long hinge (LH, 568-863) (E. coli, UniProt P22523 568-863)
T1 sequence (looked up): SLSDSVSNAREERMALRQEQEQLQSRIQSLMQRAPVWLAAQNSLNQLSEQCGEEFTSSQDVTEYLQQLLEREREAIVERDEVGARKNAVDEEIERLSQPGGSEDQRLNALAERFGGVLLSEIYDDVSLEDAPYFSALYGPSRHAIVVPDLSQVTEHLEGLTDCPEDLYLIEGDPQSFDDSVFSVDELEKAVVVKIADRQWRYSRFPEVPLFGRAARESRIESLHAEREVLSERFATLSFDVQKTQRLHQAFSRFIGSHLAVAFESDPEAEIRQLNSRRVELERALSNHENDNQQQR

T2: MukB^KKK (full length MukB D697K D745K E753K) (E. coli, UniProt P22523 1-1486, D697K | D745K | E753K)
T2 sequence (looked up): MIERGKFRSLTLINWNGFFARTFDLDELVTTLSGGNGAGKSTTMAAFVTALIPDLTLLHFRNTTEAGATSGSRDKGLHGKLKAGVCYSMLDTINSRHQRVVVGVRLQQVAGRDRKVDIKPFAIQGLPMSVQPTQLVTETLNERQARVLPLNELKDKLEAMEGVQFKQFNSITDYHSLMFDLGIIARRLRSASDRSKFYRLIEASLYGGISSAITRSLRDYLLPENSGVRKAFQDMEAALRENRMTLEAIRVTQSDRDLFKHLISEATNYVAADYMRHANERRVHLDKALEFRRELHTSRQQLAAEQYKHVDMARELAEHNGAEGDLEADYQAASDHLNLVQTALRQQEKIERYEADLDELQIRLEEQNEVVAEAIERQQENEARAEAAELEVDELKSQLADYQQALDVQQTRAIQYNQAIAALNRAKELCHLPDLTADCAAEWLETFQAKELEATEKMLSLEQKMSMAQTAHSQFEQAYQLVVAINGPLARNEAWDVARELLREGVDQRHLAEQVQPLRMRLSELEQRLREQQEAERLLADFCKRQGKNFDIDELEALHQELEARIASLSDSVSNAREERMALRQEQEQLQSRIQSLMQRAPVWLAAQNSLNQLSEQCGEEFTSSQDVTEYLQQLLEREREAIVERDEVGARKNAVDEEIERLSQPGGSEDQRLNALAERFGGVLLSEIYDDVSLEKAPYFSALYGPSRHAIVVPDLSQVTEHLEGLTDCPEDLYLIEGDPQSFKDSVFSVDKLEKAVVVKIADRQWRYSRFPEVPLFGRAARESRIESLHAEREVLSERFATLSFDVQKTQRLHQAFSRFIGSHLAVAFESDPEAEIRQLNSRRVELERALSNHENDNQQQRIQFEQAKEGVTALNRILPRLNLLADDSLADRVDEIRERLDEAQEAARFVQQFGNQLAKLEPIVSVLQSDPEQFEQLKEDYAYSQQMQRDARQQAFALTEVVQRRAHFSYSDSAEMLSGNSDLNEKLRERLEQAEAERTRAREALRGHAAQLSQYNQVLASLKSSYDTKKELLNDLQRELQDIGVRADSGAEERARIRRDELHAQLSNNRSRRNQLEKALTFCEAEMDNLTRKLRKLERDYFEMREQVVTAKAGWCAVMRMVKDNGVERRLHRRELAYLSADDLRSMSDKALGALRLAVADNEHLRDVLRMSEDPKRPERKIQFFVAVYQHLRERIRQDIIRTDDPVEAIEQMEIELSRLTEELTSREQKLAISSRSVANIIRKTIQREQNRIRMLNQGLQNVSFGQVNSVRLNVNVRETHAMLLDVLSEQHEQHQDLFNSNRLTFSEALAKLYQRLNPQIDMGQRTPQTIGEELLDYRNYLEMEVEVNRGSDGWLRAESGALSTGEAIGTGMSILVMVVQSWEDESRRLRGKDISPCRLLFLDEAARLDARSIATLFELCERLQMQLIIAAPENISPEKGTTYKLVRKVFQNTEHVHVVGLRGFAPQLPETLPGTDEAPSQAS

T3: MukB, full length, wild type (E. coli, UniProt P22523 1-1486)
T3 sequence (looked up): T2 sequence (looked up) with K697D, K745D, K753E

B1: MukB short hinge (SH, 667-779) (domain or fragment, E. coli, UniProt P22523 667-779, looked up)
chain: GGSEDQRLNALAERFGGVLLSEIYDDVSLEDAPYFSALYGPSRHAIVVPDLSQVTEHLEGLTDCPEDLYLIEGDPQSFDDSVFSVDELEKAVVVKIADRQWRYSRFPEVPLFG
B2: MatPΔ18C (printed MatPA18C; 1-132) (domain or fragment, E. coli, UniProt P0A8N0 1-132, looked up)
chain: MKYQQLENLESGWKWKYLVKKHREGELITRYIEASAAQEAVDVLLSLENEPVLVNGWIDKHMNPELVNRMKQTIRARRKRHFNAEHQHTRKKSIDLEFIVWQRLAGLAQRRGKTLSETIVQLIEDAENKEKY
B3: MatP-Cys-His labelled with Cy3B (MatP-Cy3B) (domain or fragment, E. coli, UniProt P0A8N0 1-132, looked up)
chain: B2 chain
modifications: Cy3B maleimide on a single cysteine engineered into the linker between MatP and its 6xHis-tag

Assays:
native MS = target: the molecule itself; assay: native MS
[1] = target: B2; assay: native MS
[2] = target: T1, MukB long hinge (LH, 568-863); assay: native MS
[3] = target: T1, MukB long hinge (LH, 568-863); assay: ITC
[4] = target: T2, MukB^KKK (full length MukB D697K D745K …); assay: fluorescence correlation spectroscopy
[5] = target: T3, MukB, full length, wild type; assay: fluorescence correlation spectroscopy

For B1, the “stoichiometry N” value (native MS) was 2 and the binding result [1] was “binds”.

With B2 the “stoichiometry N” value [2] was 1 MatP dimer per LH dimer, the Kd [3] was 0.59 µM and the dH [3] was -70.3 kJ/mol. The “stoichiometry N” value [3] was 0.96.

In the case of B3, the Kd [4] is reported as about 1.6 µM and the Kd [5] is reported as about 0.25 µM.
